Patent publication US20150368311A1 (Sanofi, published 2015)
Non-standard residues stand in square brackets, D forms with d. No end group written: not given here. Ala(4-thiazolyl) = N[C@@H](Cc1cscn1)C(=O)O

Legend:
Assay in all cases: cell-based or functional assay
human glucagon receptor [1] = molecular target: T1, human glucagon receptor (human, UniProt P47871 26-477)
human GLP-1 receptor [2] = molecular target: T2, human GLP-1 receptor (human, UniProt P43220 24-463)
human glucagon receptor [3] = molecular target: T1, human glucagon receptor; remark: listed apart in the source
human GLP-1 receptor [4] = molecular target: T2, human GLP-1 receptor; remark: listed apart in the source

T1 sequence (P47871 26-477): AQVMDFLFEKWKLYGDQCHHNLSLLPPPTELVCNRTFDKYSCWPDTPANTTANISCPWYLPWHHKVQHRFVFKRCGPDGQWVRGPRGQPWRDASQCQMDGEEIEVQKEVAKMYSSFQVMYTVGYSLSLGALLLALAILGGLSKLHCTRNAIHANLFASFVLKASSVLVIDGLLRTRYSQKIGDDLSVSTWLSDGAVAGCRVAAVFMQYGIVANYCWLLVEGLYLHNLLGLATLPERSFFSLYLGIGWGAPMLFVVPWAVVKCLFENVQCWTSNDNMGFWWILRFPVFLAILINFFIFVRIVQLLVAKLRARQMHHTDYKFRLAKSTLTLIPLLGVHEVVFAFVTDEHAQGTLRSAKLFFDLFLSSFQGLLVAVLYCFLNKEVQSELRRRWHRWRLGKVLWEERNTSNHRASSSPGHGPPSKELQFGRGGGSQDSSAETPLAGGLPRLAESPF

B1: SEQ ID NO: 4 (peptide)
peptide: [Ala(4-thiazolyl)]SQGTFTSDLSKQLESRRAQEFIEWLLAGGPESGAPPPS-OH
modifications: N-terminus assumed
SMILES: CC[C@H](C)[C@H](NC(=O)[C@H](Cc1ccccc1)NC(=O)[C@H](CCC(=O)O)NC(=O)[C@H](CCC(N)=O)NC(=O)[C@H](C)NC(=O)[C@H](CCCNC(=N)N)NC(=O)[C@H](CCCNC(=N)N)NC(=O)[C@H](CO)NC(=O)[C@H](CCC(=O)O)NC(=O)[C@H](CC(C)C)NC(=O)[C@H](CCC(N)=O)NC(=O)[C@H](CCCCN)NC(=O)[C@H](CO)NC(=O)[C@H](CC(C)C)NC(=O)[C@H](CC(=O)O)NC(=O)[C@H](CO)NC(=O)[C@@H](NC(=O)[C@H](Cc1ccccc1)NC(=O)[C@@H](NC(=O)CNC(=O)[C@H](CCC(N)=O)NC(=O)[C@H](CO)NC(=O)[C@@H](N)Cc1cscn1)[C@@H](C)O)[C@@H](C)O)C(=O)N[C@@H](CCC(=O)O)C(=O)N[C@@H](Cc1c[nH]c2ccccc12)C(=O)N[C@@H](CC(C)C)C(=O)N[C@@H](CC(C)C)C(=O)N[C@@H](C)C(=O)NCC(=O)NCC(=O)N1CCC[C@H]1C(=O)N[C@@H](CCC(=O)O)C(=O)N[C@@H](CO)C(=O)NCC(=O)N[C@@H](C)C(=O)N1CCC[C@H]1C(=O)N1CCC[C@H]1C(=O)N1CCC[C@H]1C(=O)N[C@@H](CO)C(=O)O
Human glucagon receptor [1]
  EC50 hGlucagon-R, cAMP formation: 0.0007 nM
Human GLP-1 receptor [2]
  EC50 hGLP-1R, cAMP formation: 3.3 nM
Human glucagon receptor [3]
  EC50 hGLUC R [pM], cAMP formation: 0.7 pM
Human GLP-1 receptor [4]
  EC50 hGLP-1 R [pM], cAMP formation: 3300 pM
